Sequences and labels used below:
T1: CTCF ZF1-11 (human, UniProt P49711 266-577)
T1 sequence: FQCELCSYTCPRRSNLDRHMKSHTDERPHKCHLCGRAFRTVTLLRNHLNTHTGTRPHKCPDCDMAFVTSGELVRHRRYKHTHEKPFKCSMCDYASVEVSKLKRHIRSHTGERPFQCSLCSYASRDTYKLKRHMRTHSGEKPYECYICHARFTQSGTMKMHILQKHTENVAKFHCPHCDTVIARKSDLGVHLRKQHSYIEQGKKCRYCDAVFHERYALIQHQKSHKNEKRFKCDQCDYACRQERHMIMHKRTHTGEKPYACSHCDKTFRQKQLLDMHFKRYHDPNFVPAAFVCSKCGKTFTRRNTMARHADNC

T2: CTCF FL (human, UniProt P49711 1-727)
T2 sequence: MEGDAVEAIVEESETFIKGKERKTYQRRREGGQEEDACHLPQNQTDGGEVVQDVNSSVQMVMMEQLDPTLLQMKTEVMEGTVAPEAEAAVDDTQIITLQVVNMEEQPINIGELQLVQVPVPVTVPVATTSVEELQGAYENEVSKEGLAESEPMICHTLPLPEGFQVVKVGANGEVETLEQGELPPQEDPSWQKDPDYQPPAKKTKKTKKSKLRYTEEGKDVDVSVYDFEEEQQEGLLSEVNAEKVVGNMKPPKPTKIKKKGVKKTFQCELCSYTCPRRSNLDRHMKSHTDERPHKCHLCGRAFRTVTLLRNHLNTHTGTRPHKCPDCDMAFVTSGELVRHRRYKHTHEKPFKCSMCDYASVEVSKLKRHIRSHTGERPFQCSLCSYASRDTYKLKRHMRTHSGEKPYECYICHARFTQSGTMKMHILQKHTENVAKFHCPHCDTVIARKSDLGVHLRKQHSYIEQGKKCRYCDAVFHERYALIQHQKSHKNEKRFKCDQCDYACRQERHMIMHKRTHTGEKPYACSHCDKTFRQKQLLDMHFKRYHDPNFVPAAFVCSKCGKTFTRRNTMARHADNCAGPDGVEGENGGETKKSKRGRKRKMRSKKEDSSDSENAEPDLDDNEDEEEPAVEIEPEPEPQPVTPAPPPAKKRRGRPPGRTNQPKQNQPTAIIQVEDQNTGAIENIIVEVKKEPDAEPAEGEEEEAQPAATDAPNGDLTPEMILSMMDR

B1: H19 full 5hmC (dsDNA)
DNA 1: GTTGCCGCGTGGTGGCAG
DNA 2: CTGCCACCACGCGGCAAC
modifications: 5hmC C2 both strands
B2: H19 motif strand 5hmC (dsDNA)
DNA 1: GTTGCCGCGTGGTGGCAG
DNA 2: CTGCCACCACGCGGCAAC
modifications: 5hmC motif strand C2
B3: Cen-CTCF motif strand 5hmC (dsDNA)
DNA 1: AGGCCGCCAGAGAGCGCCC
DNA 2: GGGCGCTCTCTGGCGGCCT
modifications: 5hmC motif strand
B4: Cen-CTCF full 5hmC (dsDNA)
DNA 1: AGGCCGCCAGAGAGCGCCC
DNA 2: GGGCGCTCTCTGGCGGCCT
modifications: 5hmC at CpGs, both strands
B5: Telo-CTCF (dsDNA)
DNA 1: TCCCCACCAGGGGGAGCAC
DNA 2: GTGCTCCCCCTGGTGGGGA
B6: Cen-CTCF unmethylated (dsDNA)
DNA 1: AGGCCGCCAGAGAGCGCCC
DNA 2: GGGCGCTCTCTGGCGGCCT
B7: H19 unmethylated (dsDNA)
DNA 1: GTTGCCGCGTGGTGGCAG
DNA 2: CTGCCACCACGCGGCAAC
B8: Negative control (dsDNA)
DNA 1: AAGACGATTCTGGATTGTA
DNA 2: TACAATCCAGAATCGTCTT
B9: Cen-CTCF motif C2 5mC (dsDNA)
DNA 1: AGGCCGCCAGAGAGCGCCC
DNA 2: GGGCGCTCTCTGGCGGCCT
modifications: 5mC motif strand C2
B10: Cen-CTCF motif C2 + opposite C2 5mC (dsDNA)
DNA 1: AGGCCGCCAGAGAGCGCCC
DNA 2: GGGCGCTCTCTGGCGGCCT
modifications: 5mC motif C2 and opposite C2
B11: Cen-CTCF opposite C12 5mC (dsDNA)
DNA 1: AGGCCGCCAGAGAGCGCCC
DNA 2: GGGCGCTCTCTGGCGGCCT
modifications: 5mC opposite strand C12
B12: H19 motif C2 5mC (dsDNA)
DNA 1: GTTGCCGCGTGGTGGCAG
DNA 2: CTGCCACCACGCGGCAAC
modifications: 5mC motif strand C2
B13: Cen-CTCF motif C12 + opposite C2 5mC (dsDNA)
DNA 1: AGGCCGCCAGAGAGCGCCC
DNA 2: GGGCGCTCTCTGGCGGCCT
modifications: 5mC motif C12 and opposite C2
B14: Cen-CTCF opposite C2 5mC (dsDNA)
DNA 1: AGGCCGCCAGAGAGCGCCC
DNA 2: GGGCGCTCTCTGGCGGCCT
modifications: 5mC opposite strand C2
B15: Cen-CTCF motif C12 + opposite C12 5mC (dsDNA)
DNA 1: AGGCCGCCAGAGAGCGCCC
DNA 2: GGGCGCTCTCTGGCGGCCT
modifications: 5mC motif C12 and opposite C12
B16: Cen-CTCF full methylation (dsDNA)
DNA 1: AGGCCGCCAGAGAGCGCCC
DNA 2: GGGCGCTCTCTGGCGGCCT
modifications: 5mC at C2 and C12 CpGs, both strands
B17: H19 opposite C2 5mC (dsDNA)
DNA 1: GTTGCCGCGTGGTGGCAG
DNA 2: CTGCCACCACGCGGCAAC
modifications: 5mC opposite strand C2
B18: Cen-CTCF motif C12 5mC (dsDNA)
DNA 1: AGGCCGCCAGAGAGCGCCC
DNA 2: GGGCGCTCTCTGGCGGCCT
modifications: 5mC motif strand C12
B19: H19 full methylation (dsDNA)
DNA 1: GTTGCCGCGTGGTGGCAG
DNA 2: CTGCCACCACGCGGCAAC
modifications: 5mC C2 both strands
B20: Cen-CTCF motif C2 + opposite C12 5mC (dsDNA)
DNA 1: AGGCCGCCAGAGAGCGCCC
DNA 2: GGGCGCTCTCTGGCGGCCT
modifications: 5mC motif C2 and opposite C12
B21: Cen-CTCF opposite C2+C12 5mC (dsDNA)
DNA 1: AGGCCGCCAGAGAGCGCCC
DNA 2: GGGCGCTCTCTGGCGGCCT
modifications: 5mC opposite strand C2, C12
B22: Cen-CTCF motif C2+C12 5mC (dsDNA)
DNA 1: AGGCCGCCAGAGAGCGCCC
DNA 2: GGGCGCTCTCTGGCGGCCT
modifications: 5mC motif strand C2, C12

Several values for one entry are separate records, joined by “and”; a condition that tells them apart may be missing. Equal values may be shown once.

The first data set concerns the target T1, CTCF ZF1-11. Nature of the data set: fluorescence polarization; 20 mM Tris-HCl pH 7.5, 300 mM NaCl, 5% glycerol, 0.5 mM TCEP, 25 C, 15 min, 5 nM FAM-oligo. Conditions: protein: recombinant; tags: 6xHis-SUMO, used tagged and untagged (no change in results); label: FAM on motif strand. Background: In fluorescence polarisation assays a small probe gives low polarisation when free and higher when bound to something large.
Regarding B1, the binding signal is ~2 fold lower affinity vs N3. Same read-out and setting: the value for B2 was ~2 fold lower affinity vs N3.

Another data set has as its target T1, CTCF ZF1-11. Described as above. Particulars: protein: recombinant; tags: 6xHis-SUMO, used tagged and untagged (no change in results); label: FAM on motif strand. The source holds these as a separate data set.
As to B3, the binding signal was ~4 fold lower affinity vs N2. With B4, the binding signal was ~4 fold lower affinity vs N2.

For the next data set, the target named is T2, CTCF FL. The description is as above. Conditions: protein: recombinant; tags: 6xHis-SUMO, used tagged or removed (untagged for FL); label: FAM on motif strand.
For orientation: Kd means the equilibrium constant for the complex coming apart. In the case of B5, the Kd is ~5 nM. The same measure, in the same setting: the value for B6 was ~200 nM; that for B7 was ~200 nM.

The target in another data set is T1, CTCF ZF1-11. The data set is described as above. Particulars: protein: recombinant; tags: 6xHis-SUMO, used tagged and untagged (no change in results); label: FAM.
Turning to B8, the Kd was ~1000 nM.

The same data set, now with this note: protein: recombinant; tags: 6xHis-SUMO, used tagged and untagged (no change in results); label: FAM on motif strand.
As for B9, the Kd amounted to 949 ± 165 nM.

Regarding B5, the Kd is ~5 nM. As for B10, the equilibrium dissociation constant (Kd) was determined as 799 ± 110 nM. The same measure, in the same setting: the value for B6 was 163 nM and ~200 nM; that for B7 was 149 nM and ~200 nM; that for B11 was 77 ± 5 nM. Regarding B12, the Kd is 346 nM. As to B13, the dissociation constant Kd was 243 ± 18 nM. On the same count and under the same terms, to B14 belongs 81 ± 5 nM. Still for that read-out and setting: the value for B15 was 303 ± 28 nM. Still for that read-out and setting: to B16 belongs 1080 ± 217 nM.

Turning to B17, the equilibrium dissociation constant (Kd) was 89 nM. Same read-out and setting: to B18 belongs 428 ± 37 nM. In the case of B19, the dissociation constant Kd was 294 nM. On the same count and under the same terms, the value for B20 was 839 ± 74 nM. As for B21, the Kd was found to be 37 ± 2 nM. For B22, the Kd stood at 1030 ± 114 nM.

Source of the values: PMC10325916, “DNA strand asymmetry generated by CpG hemimethylation has opposing effects on CTCF binding”.
